In the RNAGym collection of RNA variant scans (doi:10.1093/molbev/msab373) one finds reverse-splicing fitness data, which are given here for 83 variants.

The labels stand for the following.
B1: Azoarcus group I ribozyme (parent)
chain: GUGCCUUGCGCCGGGAAACCACGCAAGGGAUGGUGUCAAAUUCGGCGAAACCUAAGCGCCCGCCCGGGCGUAUGGCAACGCCGAGCCAAGCUUCGGCGCCUGCGCCGAUGAAGGUGUAGAGACUAGACGGCACCCACCUAAGGCAAACGCUAUGGUGAAGGCAUAGUCCAGGGAGUGGCGAAAGUCACACAAACCGG

This data set covers variants of B1. Briefly: reverse-splicing fitness (ratio to wild type); higher = more active; in vitro selection; Mg2+ level not given. An outline of the steps: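 An in vitro group I ribozyme library with randomized positions was T7-transcribed and gel-purified. In triplicate, 10 pmol RNA in EPPS pH 7.5 was reacted with 50 pmoles of a 30-nt RNA substrate for 1 h at 37 °C across several added MgCl2 levels (1–48 mM), then stopped with EDTA. Products were reverse transcribed from a substrate-complementary primer, PCR-amplified and sequenced (HiSeq 4000). Fitness is a variant's read proportion after selection over that before, normalised to wild type.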
As for C82A A111G A120G A145G C150A C169G U176C, the reverse-splicing fitness came out at 0.0239.

As for C82A A111G A120G A145G C150A C169G U176A, the reverse-splicing fitness was found to be 0.0194.

In the case of C82A A111G A120G A145G C150A C169G U176G, the reverse-splicing fitness amounted to 0.00592.

As for C82A A111G A120C C150G U176G, the reverse-splicing fitness was 0.00391.

Regarding C82A A111G A120C C150G U176C, the reverse-splicing fitness turned out to be 0.00892.

Regarding C82A A111G A120C C150G U176A, the reverse-splicing fitness amounted to 0.0064.

C82A A111G A120G C150U C169U U176A: the reverse-splicing fitness came to 0.023.

Regarding C82A A111G A120G C150U C169U U176G, the reverse-splicing fitness came out at 0.00738.

Regarding C82A A111G A120G C150U C169U U176C, the reverse-splicing fitness amounted to 0.0179.

With C82A A111G A120G A145U C169G, the reverse-splicing fitness amounted to 0.0112.

Regarding C82A A111G A120G A145U C169A, the reverse-splicing fitness is 0.00824.

As for C82A A111G A120G A145U C169U, the reverse-splicing fitness was found to be 0.00927.

For the variant C82A A111G A120G A145C C150U U176C, the reverse-splicing fitness was 0.0104.

In the case of C82A A111G A120G A145C C150U U176G, the reverse-splicing fitness amounted to 0.00504.

For the variant C82A A111G A120G A145C C150U U176A, the reverse-splicing fitness worked out at 0.00898.

For the variant C82A A111G A120G C169A U176G, the reverse-splicing fitness amounted to 0.00477.

For the variant C82A A111G A120G C169A U176A, the reverse-splicing fitness amounted to 0.0178.

Regarding C82A A111G A120G C169A U176C, the reverse-splicing fitness was found to be 0.0213.

For the variant C82A A111G A120G C150A C169G, the reverse-splicing fitness amounted to 0.00987.

For the variant C82A A111G A120G C150A C169U, the reverse-splicing fitness turned out to be 0.00823.

With C82A A111G A120G C150A C169A, the reverse-splicing fitness amounted to 0.0103.

As for C82A A111G A120G A145C C169A, the reverse-splicing fitness was 0.00912.

For the variant C82A A111G A120G A145C C169U, the reverse-splicing fitness came to 0.0103.

As to C82A A111G A120G A145C C169G, the reverse-splicing fitness came to 0.0122.

Turning to C82A A111G A120G C169G U176C, the reverse-splicing fitness amounted to 0.0229.

Turning to C82A A111G A120G C169G U176A, the reverse-splicing fitness was 0.0226.

For C82A A111G A120G C169G U176G, the reverse-splicing fitness came out at 0.00458.

With C82A A111G A120G A145C C150A C169G, the reverse-splicing fitness was determined as 0.00922.

Turning to C82A A111G A120G A145C C150A C169U, the reverse-splicing fitness came to 0.00881.

On to C82A A111G A120G A145C C150A C169A, for which the reverse-splicing fitness is 0.00942.

As to C82A A111G A120G A145U C150A C169U U176C, the reverse-splicing fitness was 0.0157.

Regarding C82A A111G A120G A145U C150A C169U U176A, the reverse-splicing fitness is 0.0222.

With C82A A111G A120G A145U C150A C169U U176G, the reverse-splicing fitness is 0.00457.

In the case of C82A A111G A120G A145C C150U, the reverse-splicing fitness stood at 0.0102.

Regarding C82A A111G A120G A145C C150G, the reverse-splicing fitness was 0.00656.

As to C82A A111G A120G A145C C150A, the reverse-splicing fitness was 0.0077.

For C82A A111G A120G A145C U176C, the reverse-splicing fitness was 0.0105.

Take C82A A111G A120G A145C U176A: the reverse-splicing fitness came out at 0.0113.

Regarding C82A A111G A120G A145C U176G, the reverse-splicing fitness turned out to be 0.00516.

For the variant C82A A111G A120C C150U C169U U176G, the reverse-splicing fitness was 0.00647.

For the variant C82A A111G A120C C150U C169U U176A, the reverse-splicing fitness is 0.014.

As to C82A A111G A120C C150U C169U U176C, the reverse-splicing fitness amounted to 0.0125.

Take C82A A111G A120C A145U C150U C169U: the reverse-splicing fitness came out at 0.0117.

Take C82A A111G A120C A145U C150U U176A: the reverse-splicing fitness is 0.0145.

For C82A A111G A120C A145U C150U U176G, the reverse-splicing fitness came to 0.00709.

As for C82A A111G A120C A145U C150U U176C, the reverse-splicing fitness came out at 0.0248.

On to C82A A111G A120G A145C C150U C169G U176G, for which the reverse-splicing fitness was found to be 0.00597.

C82A A111G A120G A145C C150U C169G U176A: the reverse-splicing fitness came out at 0.0242.

Turning to C82A A111G A120G A145C C150U C169G U176C, the reverse-splicing fitness amounted to 0.0123.

In the case of C82A A111G A120G A145U C150G U176C, the reverse-splicing fitness came out at 0.00837.

With C82A A111G A120G A145U C150G U176G, the reverse-splicing fitness is 0.00378.

For the variant C82A A111G A120G A145U C150G U176A, the reverse-splicing fitness is 0.00605.

Take C82A A111G A120G A145G C150G C169A: the reverse-splicing fitness was 0.00897.

Regarding C82A A111G A120G A145G C150G C169G, the reverse-splicing fitness came out at 0.00754.

As for C82A A111G A120G A145G C150G C169U, the reverse-splicing fitness turned out to be 0.0091.

Turning to C82A A111G A120G A145U C150A C169G U176G, the reverse-splicing fitness turned out to be 0.00478.

For C82A A111G A120G A145U C150A C169G U176A, the reverse-splicing fitness amounted to 0.0145.

Take C82A A111G A120G A145U C150A C169G U176C: the reverse-splicing fitness stood at 0.0169.

For C82A A111G A120C C150G C169U U176C, the reverse-splicing fitness worked out at 0.0107.

As to C82A A111G A120C C150G C169U U176A, the reverse-splicing fitness came out at 0.00701.

Take C82A A111G A120C C150G C169U U176G: the reverse-splicing fitness is 0.00651.

As to C82A A111G A120G C150A U176G, the reverse-splicing fitness was determined as 0.00961.

In the case of C82A A111G A120G C150A U176C, the reverse-splicing fitness was 0.0186.

For C82A A111G A120G C150A U176A, the reverse-splicing fitness came out at 0.0129.

Turning to C82A A111G A120G A145C C150A U176G, the reverse-splicing fitness stood at 0.00509.

As for C82A A111G A120G A145C C150A U176A, the reverse-splicing fitness is 0.0107.

For the variant C82A A111G A120G A145C C150A U176C, the reverse-splicing fitness is 0.00922.

As to C82A A111G A120C C150A U176C, the reverse-splicing fitness came to 0.0223.

Take C82A A111G A120C C150A U176A: the reverse-splicing fitness was determined as 0.0133.

Turning to C82A A111G A120C C150A U176G, the reverse-splicing fitness turned out to be 0.0115.

Regarding C82A A111G A120G A145G U176A, the reverse-splicing fitness was determined as 0.0128.

For C82A A111G A120G A145G U176C, the reverse-splicing fitness worked out at 0.0205.

Consider C82A A111G A120G A145G U176G, for which the reverse-splicing fitness was 0.00638.

On to C82A A111G A120C C150U C169G U176G, for which the reverse-splicing fitness was 0.00643.

For the variant C82A A111G A120C C150U C169G U176A, the reverse-splicing fitness came to 0.0173.

Regarding C82A A111G A120C C150U C169G U176C, the reverse-splicing fitness was determined as 0.0203.

On to C82A A111G A120G C150G C169G U176C, for which the reverse-splicing fitness stood at 0.00515.

For the variant C82A A111G A120G C150G C169G U176A, the reverse-splicing fitness was 0.00689.

In the case of C82A A111G A120G C150G C169G U176G, the reverse-splicing fitness was found to be 0.00489.

As to C82A A111G A120G C150U C169A U176A, the reverse-splicing fitness worked out at 0.0153.

On to C82A A111G A120G C150U C169A U176G, for which the reverse-splicing fitness is 0.00549.

Take C82A A111G A120G C150U C169A U176C: the reverse-splicing fitness was 0.0173.

As for C82A A111G A120G A145G C169U U176C, the reverse-splicing fitness was found to be 0.0173.
